In paper PMC10866537 one finds Kd data, which are given here for two substances.

A word on the Kd: it is the free concentration of one partner at which half of the binding sites on the other are occupied at equilibrium, for simple one-to-one binding.

Experiment [1] has as its target mouse 4-1BB–Fc protein (mouse) (UniProt P20334). Kind of experiment: SPR; BIAcore X100; siglec-4–Fc or m4-1BB–Fc amine-coupled to CM5; h4-1BB–HIS or m-siglec-4–HIS flowed at 18 to 3000 nM in HBS-EP (10 mM Hepes pH 7.4, 150 mM NaCl, 3 mM EDTA, 0.05% P20); fitted with a 1:2 binding model. A general note: Surface plasmon resonance follows binding to a sensor surface in real time, without labels.

The target in another experiment is 4-1BBL (Homo sapiens) (UniProt P41273). Conditions: cited from earlier work.
Sequence of 4-1BBL (Homo sapiens) (P41273 whole entry): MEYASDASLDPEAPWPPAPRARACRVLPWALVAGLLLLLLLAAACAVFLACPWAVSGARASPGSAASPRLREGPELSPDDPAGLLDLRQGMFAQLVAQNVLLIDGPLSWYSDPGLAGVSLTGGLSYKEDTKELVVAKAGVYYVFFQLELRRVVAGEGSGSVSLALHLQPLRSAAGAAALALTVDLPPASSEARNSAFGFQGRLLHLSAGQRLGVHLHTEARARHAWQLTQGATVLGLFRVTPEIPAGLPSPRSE

Sequence of mouse 4-1BB–Fc protein (mouse) (P20334 24-187): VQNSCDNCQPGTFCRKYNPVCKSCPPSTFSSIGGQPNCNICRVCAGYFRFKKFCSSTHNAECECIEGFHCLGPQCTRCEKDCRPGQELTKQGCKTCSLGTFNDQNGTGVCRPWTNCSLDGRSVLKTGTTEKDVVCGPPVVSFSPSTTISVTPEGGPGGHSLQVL
Sequence of 4-1BB (Q07011 24-255): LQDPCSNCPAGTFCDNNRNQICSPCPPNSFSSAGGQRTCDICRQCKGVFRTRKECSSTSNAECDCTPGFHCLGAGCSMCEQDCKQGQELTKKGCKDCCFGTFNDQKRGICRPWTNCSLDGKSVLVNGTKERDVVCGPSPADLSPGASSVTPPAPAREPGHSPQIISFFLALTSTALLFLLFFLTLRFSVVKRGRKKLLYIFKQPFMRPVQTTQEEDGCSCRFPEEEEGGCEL

In experiment [1], “mouse siglec-4–HIS protein (domain or fragment)” displayed a Kd of 860 nM.
Take 4-1BB (from UniProt Q07011): the equilibrium dissociation constant (Kd) in the experiment with 4-1BBL (Homo sapiens) is 85.6 nM.
